Data published in the supplement of paper PMC9170038.
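Also: bound reporter read as fluorescence of individual clusters on recovered sequencing chips by microscopy, with normalized cluster intensities fitted with a binding model.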

The sequences below were run on K4 kissing-loop RNA reporter (assay: apparent KD of K4 kissing-loop reporter; higher = weaker reporter binding). Conditions: Eterna round: R107; input ligand: tryptophan 2.4 mM.
Experimental: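 RNA-MaP round R107: designed RNA switches with theophylline, tryptophan, arginine or FMN aptamers are transcribed on-chip within common flanks. They are titrated with a labelled K4 kissing-loop RNA reporter in RNA-MaP buffer (100 mM Tris pH 7.5, 80 mM KCl, 4 mM MgCl2), without ligand or with the indicated ligand. Median apparent KD per design.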
For “CAGAUGUAGGCGGCCGCCACUCUCAUUACCGUACGCAAGUAUGAUUAGAAGUGAUGUUUCUCGGUGAGGACCGGGCCAUUCCCGA [theeternabot_sameState_KL_Trp_B_27]”, the “apparent KD of K4 kissing-loop reporter” value was 545 nM.
“GCCGUAGAUGGAAGGAGCGUGGUUAAUGUAAGUGAUGUUUACGAGGUCAACAAUUGACCGCCACAGGUAGGUCGCCAUCUACGGC” was tested, and the “apparent KD of K4 kissing-loop reporter” value was 56.4 nM.
In the case of “AUUUUUUUAUCAGGAUAUUAGUGUUGGUUUGUUUUGUUAGUGAUGUUGAUAUUUGUUUUAUGUAUUUAAGAAGGGAUUGAGAUGU [huupullin]”, the “apparent KD of K4 kissing-loop reporter” value is reported as 211 nM.
With “UGAUACCAGACGGCCGCCACUGCACCAGUCAAUGACUGAGUGUGGUAAUGCUCAGUGAUGUUGAGUAGGACCGGGUCUGGUAUCU [Mod of Eli's TrypBX 8 v2]” the “apparent KD of K4 kissing-loop reporter” value was 124 nM.
For “AGAUUCGACACGGCCGCCACUUCCAGUGGCUGGUGUCAUGGUGCGCGUGAGUGAUGUUUAUGUGGAAGGACCGGGUGUUGAGUCU [KL-XTryp-B1 #analogue]”, the “apparent KD of K4 kissing-loop reporter” value was 1190 nM.
With “GUAGCACUUGAUAGUGAUGUUAUCAAGGGCAAGGAUAUCAUCUCAAUGAGAAGGUGUCCUUGAUAACUGCUACGGGAAUAUCCCA [Omei KL FMN A Exc D v6]” the “apparent KD of K4 kissing-loop reporter” value was 102 nM.
For “AUUAUAUUGUGAAGGAGCGCGCAUAGUAGUGAUGUUACUAUGACAUAUCUUAUUUAAUUCUCGCAGGUAGGUCGCACAUUAUAUA [JR_Nu_ExcArginiB_Sub026]”, the “apparent KD of K4 kissing-loop reporter” value was 71.8 nM.
In the case of “UGAUACCAGACGGCCGCCACUCCCGCAGGUCAAAGACCUGCGAAGCUGGUUCUUCAGUGAUGUUGGAGGACCGGGUCUGGUAUCU [FiskerMod 24 - Jieux - Exclusion - Tryptophan B]”, the “apparent KD of K4 kissing-loop reporter” value is reported as 504 nM.
“AUUUAAUUAACUGAUACCAGACUUUAAGUAAUUAUUAAAACUAGUGAUGUUAGUUUAUCUGUCCCUUGGCAGCAGUUUCUACUUA [JR_Nu_ExcTheophyB_Sub020]” was tested, and the “apparent KD of K4 kissing-loop reporter” value was 127 nM.
“UUGAGCCGGACGGAAGUCCGGCUCUGCGAGCGAGGACCGGUACGGCCGCCACUCGGUGCAGUGAUGUUGCAUGGCCGCAAGGCCG [#2 Exclusion - Tryptophan A Attempt #4 (HarryS)]” was tested, and the “apparent KD of K4 kissing-loop reporter” value was 324 nM.
In the case of “UCGACUGUGUCGGCCGCCACUGGUAUAAACGGACUAUAACGACAUGAGUGAUGUUCAUGUUCGUCUAGGACCGGGACACAAUGUA [Tryp B Ex t3]”, the “apparent KD of K4 kissing-loop reporter” value is reported as 90 nM.
“AGGUUUUGAUUAGGAUAUGCACUGACGACGAGAAUAUAGUGAUGUUAUAUACUACGAAUUAGUAGAGUAGAAGGGAUUGAGGUUU [SSFMNB.Y]” was tested, and the “apparent KD of K4 kissing-loop reporter” value was 245 nM.
With “AAGUGAUGUUGUAGUGAUGUUGUGAUGUUGCAGGAUAUAUAGUGAUGUAGAAGGGUAUGUACUUAUUUGUUUUUUGAGUUAUGUU [zzazzrmullin]” the “apparent KD of K4 kissing-loop reporter” value was 53.8 nM.
In the case of “GUUUGCCGGUUCCGGAGUGAUGUUCCGGAUACCAGCAACUUCCUUUGCCCUUGGCAGCCGUAGCUAUACCGGAUGGCAGCUUCAG [Arrexean]”, the “apparent KD of K4 kissing-loop reporter” value is reported as 95.4 nM.
In the case of “GCGCGUCAUGUCAGCGGUGACACUGUCGAUACCAGCGCCGGAAGGCGCCCUUGGCAGCGACGUGCUGGAGUGAUGUUCCAGCGUC [#2 Exclusion - Theophylline A Attempt #21 (HarryS)]”, the “apparent KD of K4 kissing-loop reporter” value is reported as 134 nM.
With “CACCAUGAAUUCUCUAGGAGUGAUGUUUUUCGAGGACCGGUACGGCCGCCACUCGGACGAGGACCCUGGGAGCGGCGAAGCGGCU [nigmullin]” the “apparent KD of K4 kissing-loop reporter” value was 150 nM.
For “AGUCCACUCUAAAGAGUGGACCUAAGGGAUACCAGUGAUGUUGGUCACCCUUGGCAGCCCGCUGUCAUCGAUAAAGAUGGCAGGA”, the “apparent KD of K4 kissing-loop reporter” value was 125 nM.
For “GCCUAGGCUCGAAAGAGCCUAGGCUUGUCUCAGGAUAUCUGGAAACAGAGAAGGGAGCUACUAGUGAUGUUAGGAAUUCCCUAAG”, the “apparent KD of K4 kissing-loop reporter” value was 98 nM.
“CAUUCACGGCGAGUCGAAGUGAUGUUUCGGCGAGGACCGGUACGGCCGCCACUCGGAUAAAUAUAGCUUAUCACAUACACUUUCG [theeternabot_exclusion_KL_Trp_A_27]” was tested, and the “apparent KD of K4 kissing-loop reporter” value was 132 nM.
In the case of “AAAAUAAACCAGUGAUGUUGGUGUCCAGAUACCAGCGGUAAAAUCCGCCCUUGGCAGCUGUGGACGUACAAAAUAAGUACGUCCU [MatMod 4 - Jieux - Same State - Theophylline A]”, the “apparent KD of K4 kissing-loop reporter” value is reported as 358 nM.
In the case of “AACCGUGUGGCGGCCGCCACUAGUCUCCAGUGAUGUUGGAGAGACCACGUAAGUGGUCUCCAACAUAGGACCGGGCCAUAUGGAA [Same State - Tryptophan B (Freestyle 26)]”, the “apparent KD of K4 kissing-loop reporter” value is reported as 259 nM.
“AAGCAGUCAGGAUCGAAGAUCCUGCAAAACCGAGGACCGGUACGGCCGCCACUCGGAGUGAUGUUCCGAAGACUGCAAAAUAAAA [#SwitchBubble 6]” was tested, and the “apparent KD of K4 kissing-loop reporter” value was 64.5 nM.
For “GACUCUCUCGUCAGGAAGACGCACUCAGCCAAGGAUAUUAUGUUUUUAAGAAGGUGGACUUAUGCCAGUGAUGUUGGCAGAUACG [theeternabot_sameState_KL_FMN_A_29]”, the “apparent KD of K4 kissing-loop reporter” value was 57.1 nM.
With “AUAAUAUGAGUGAUGUUCAUGAAACCUGAAGGAGCGGACGAAAGUCCAGGUAGGUCGCAGGACUCCUUCAACAUGGGAGAGGGAG [KL-SSArg-A8 #analogue]” the “apparent KD of K4 kissing-loop reporter” value was 150 nM.
With “AAAGACUGACUGCAAUUAGCAGUCAGUCAACGAGGACCGGUACGGCCGCCACUCGGGUCCUAGAGUGAUGUUCUAAUAAUAUAAA [AK1.2 SS Tryptophan A]” the “apparent KD of K4 kissing-loop reporter” value was 207 nM.
With “UGUCAUUGGUCUGAUACCAGUACCCUUGGCAGCCGAGGAGUGAUGUUCCAAGGAUACCAGUACCCUUGGCAGCAGACCGAUGACU [TheoBS 30 #DoubleAptamer #SwitchBubble]” the “apparent KD of K4 kissing-loop reporter” value was 215 nM.
In the case of “UUAGGAGAGGGAAGGAGCGUGAAAGAGAAAGAAUAUAGUGAUGUUAUAUAGAAGAAAGAAUCACAGGUAGGUCGCCCGGAGGAGG [SSArgB.C]”, the “apparent KD of K4 kissing-loop reporter” value is reported as 518 nM.
